Source: patent US20200308244A1 (ORIONIS BIOSCIENCES, published 2020)
Like-named read-outs stand apart in the source and are kept apart here.

Experiments:
Assay in all cases: cell-based or functional assay
[1] = target: T1, type I interferon-α/β receptor (IFNAR), composed of the IFNAR1 and IFNAR2 subunits (human) (UniProt P17181)
T1 sequence (looked up) 1: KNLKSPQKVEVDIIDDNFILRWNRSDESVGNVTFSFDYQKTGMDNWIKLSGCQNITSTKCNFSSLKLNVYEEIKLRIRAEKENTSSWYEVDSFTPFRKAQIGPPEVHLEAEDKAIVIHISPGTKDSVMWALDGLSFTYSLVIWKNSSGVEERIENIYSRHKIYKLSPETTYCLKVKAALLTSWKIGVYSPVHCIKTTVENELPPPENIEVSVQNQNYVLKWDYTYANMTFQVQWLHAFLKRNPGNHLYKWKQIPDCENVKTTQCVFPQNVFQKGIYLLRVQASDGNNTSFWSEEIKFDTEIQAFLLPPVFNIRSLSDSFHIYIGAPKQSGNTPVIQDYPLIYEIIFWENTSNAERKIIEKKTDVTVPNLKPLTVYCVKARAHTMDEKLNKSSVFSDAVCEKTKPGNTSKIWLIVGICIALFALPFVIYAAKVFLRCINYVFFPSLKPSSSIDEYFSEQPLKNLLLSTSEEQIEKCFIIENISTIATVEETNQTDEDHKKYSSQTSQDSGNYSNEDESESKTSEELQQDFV
T1 sequence (looked up) 2: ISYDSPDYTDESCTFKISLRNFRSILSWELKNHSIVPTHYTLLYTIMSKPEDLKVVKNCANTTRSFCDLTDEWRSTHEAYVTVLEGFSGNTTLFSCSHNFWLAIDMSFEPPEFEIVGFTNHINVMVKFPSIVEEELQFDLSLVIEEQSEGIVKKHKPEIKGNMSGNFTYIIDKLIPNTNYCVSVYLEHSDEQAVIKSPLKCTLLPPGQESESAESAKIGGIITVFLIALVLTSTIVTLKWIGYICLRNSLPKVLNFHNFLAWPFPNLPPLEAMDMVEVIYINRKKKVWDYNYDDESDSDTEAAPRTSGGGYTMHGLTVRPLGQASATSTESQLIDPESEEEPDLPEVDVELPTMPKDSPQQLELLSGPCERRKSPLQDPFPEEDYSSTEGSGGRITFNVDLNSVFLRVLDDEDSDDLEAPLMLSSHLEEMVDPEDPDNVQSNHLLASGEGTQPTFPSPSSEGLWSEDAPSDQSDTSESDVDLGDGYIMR

[2] = target: T1, type I interferon-α/β receptor (IFNAR), composed of the IFNAR1 and IFNAR2 subunits (human); remark: listed apart in the source
[3] = target: T2, type I interferon-α/β receptor (IFNAR), composed of the IFNAR1 and IFNAR2 subunits (human, UniProt P17181 28-557; P48551 27-515)
T2 sequence (looked up) 1: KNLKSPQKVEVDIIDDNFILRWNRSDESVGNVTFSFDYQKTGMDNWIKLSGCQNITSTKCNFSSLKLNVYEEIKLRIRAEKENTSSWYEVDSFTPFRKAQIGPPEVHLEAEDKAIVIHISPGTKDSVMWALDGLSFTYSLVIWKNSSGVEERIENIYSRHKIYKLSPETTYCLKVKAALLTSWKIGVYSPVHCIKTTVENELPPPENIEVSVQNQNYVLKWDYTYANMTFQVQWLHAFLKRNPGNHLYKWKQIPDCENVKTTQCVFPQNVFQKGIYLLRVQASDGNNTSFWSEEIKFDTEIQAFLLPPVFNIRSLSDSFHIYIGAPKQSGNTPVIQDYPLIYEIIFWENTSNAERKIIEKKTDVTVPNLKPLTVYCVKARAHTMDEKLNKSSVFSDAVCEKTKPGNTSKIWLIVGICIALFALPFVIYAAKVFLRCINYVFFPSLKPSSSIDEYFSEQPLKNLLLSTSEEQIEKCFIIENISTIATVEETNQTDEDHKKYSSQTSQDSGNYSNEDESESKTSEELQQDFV
T2 sequence (looked up) 2: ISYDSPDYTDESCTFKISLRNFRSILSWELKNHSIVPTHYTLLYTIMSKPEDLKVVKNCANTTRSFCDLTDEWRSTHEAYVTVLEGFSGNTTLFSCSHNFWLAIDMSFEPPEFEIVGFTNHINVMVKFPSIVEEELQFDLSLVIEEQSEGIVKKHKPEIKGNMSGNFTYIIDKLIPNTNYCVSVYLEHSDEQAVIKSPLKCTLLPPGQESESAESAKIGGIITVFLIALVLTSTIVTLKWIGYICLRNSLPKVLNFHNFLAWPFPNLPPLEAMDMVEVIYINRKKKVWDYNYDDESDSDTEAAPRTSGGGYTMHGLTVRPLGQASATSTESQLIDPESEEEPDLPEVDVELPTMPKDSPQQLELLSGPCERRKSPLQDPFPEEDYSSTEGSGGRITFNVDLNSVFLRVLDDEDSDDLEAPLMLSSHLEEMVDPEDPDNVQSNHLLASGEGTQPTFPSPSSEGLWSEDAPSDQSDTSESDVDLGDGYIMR

“wild type IFNα2a (Example 7) (from UniProt P01563 24-188) (ligand)” was tested. Which EC50 6-16 reporter activity, HL116 [1] did it give?
Its EC50 6-16 reporter activity, HL116 is 0.008 nM.

What about the EC50 6-16 reporter activity, HL116-CLEC9A [1] of the same molecule?
The EC50 6-16 reporter activity, HL116-CLEC9A was 0.006 nM.

B1: wild type interferon alpha 1 (IFNα1) (ligand)
chain: CDLPETHSLDNRRTLMLLAQMSRISPSSCLMDRHDFGFPQEEFDGNQFQKAPAISVLHELIQQIFNLFTTKDSSAAWDEDLLDKFCTELYQQLNDLEACVMQEERVGETPLMNADSILAVKKYFRRITLYLTEKKYSPCAWEVVRAEIMRSLSLSTNLQERLRRKE
What does the source list for B1?
EC50 6-16 reporter activity, HL116 [2]: 0.105 nM; EC50 6-16 reporter activity, HL116 (Exp 1) [2]: 2.38 ng/mL; EC50 6-16 reporter activity, HL116-CLEC9A [2]: 0.084 nM; EC50 6-16 reporter activity, HL116-huCD20 (Exp 1) [2]: 3.25 ng/mL; EC50 of luciferase (6-16 reporter) induction in HL116-CLEC9A cells [2]: 1.6 ng/mL; EC50 of luciferase (6-16 reporter) induction in parental HL116 cells [2]: 2 ng/mL; EC50 pSTAT1 in PBMC's, CD20 negative (Exp 1) [2]: 7.51 ng/ml; EC50 pSTAT1 in PBMC's, CD20 negative (Exp 2) [2]: 6.77 ng/ml; EC50 pSTAT1 in PBMC's, CD20 positive (Exp 1) [2]: 3.97 ng/ml; EC50 pSTAT1 in PBMC's, CD20 positive (Exp 2) [2]: 2.72 ng/ml; fold decrease in potency in 6-16 reporter induction relative to IFNα2 [2]: 10 to 15 fold; ratio CD20 neg/pos of EC50 6-16 reporter activity (Exp 1) [2]: 0.7; ratio CD20 neg/pos of EC50 pSTAT1 in PBMC's (Exp 1) [2]: 2; ratio CD20 neg/pos of EC50 pSTAT1 in PBMC's (Exp 2) [2]: 2.5; ratio of EC50 6-16 reporter activity, HL116 / HL116-CLEC9A [2]: 1.2

B2: CD20 VHH-(GGS)20-hIFNα1-His6 (other)
chain: QVQLQESGGGLAQAGGSLRLSCAASGRTFSMGWFRQAPGKEREFVAAITYSGGSPYYASSVRGRFTISRDNAKNTVYLQMNSLKPEDTAVYYCAANPTYGSDWNAENWGQGTQVTVSSVDGGSGGSGGSGGSGGSGGSRSGGSGGSGGSGGSGGSGGSGGSGGSGGSGGSGGSGGSGGSAAACDLPETHSLDNRRTLMLLAQMSRISPSSCLMDRHDFGFPQEEFDGNQFQKAPAISVLHELIQQIFNLFTTKDSSAAWDEDLLDKFCTELYQQLNDLEACVMQEERVGETPLMNADSILAVKKYFRRITLYLTEKKYSPCAWEVVRAEIMRSLSLSTNLQERLRRKELEHHHHHH
What does the source list for B2?
EC50 6-16 reporter activity, HL116-huCD20 (Exp 1) [3]: 0.0241 ng/mL; EC50 pSTAT1 in PBMC's, CD20 positive (Exp 1) [3]: 0.114 ng/ml; EC50 pSTAT1 in PBMC's, CD20 positive (Exp 2) [3]: 0.085 ng/ml
